Source: patent US20250339531A1, “DUX4 POLYPEPTIDES AND NUCLEIC ACIDS FOR TREATING INFLAMMATORY AND AUTOIMMUNE CONDITIONS” (Fred Hutchinson Cancer Center, priority 2021, published 2025)

B1: P04899 (protein, UniProt P04899 1-355, looked up)
chain: MGCTVSAEDKAAAERSKMIDKNLREDGEKAAREVKLLLLGAGESGKSTIVKQMKIIHEDGYSEEECRQYRAVVYSNTIQSIMAIVKAMGNLQIDFADPSRADDARQLFALSCTAEEQGVLPDDLSGVIRRLWADHGVQACFGRSREYQLNDSAAYYLNDLERIAQSDYIPTQQDVLRTRVKTTGIVETHFTFKDLHFKMFDVGGQRSERKKWIHCFEGVTAIIFCVALSAYDLVLAEDEEMNRMHESMKLFDSICNNKWFTDTSIILFLNKKDLFEEKITHSPLTICFPEYTGANKYDEAASYIQSKFEDLNKRKDTKEIYTHFTCATDTKNVQFVFDAVTDVIIKNNLKDCGLF
modifications: full-length
B2: O00469 (protein, UniProt O00469 1-737, looked up)
chain: MGGCTVKPQLLLLALVLHPWNPCLGADSEKPSSIPTDKLLVITVATKESDGFHRFMQSAKYFNYTVKVLGQGEEWRGGDGINSIGGGQKVRLMKEVMEHYADQDDLVVMFTECFDVIFAGGPEEVLKKFQKANHKVVFAADGILWPDKRLADKYPVVHIGKRYLNSGGFIGYAPYVNRIVQQWNLQDNDDDQLFYTKVYIDPLKREAINITLDHKCKIFQTLNGAVDEVVLKFENGKARAKNTFYETLPVAINGNGPTKILLNYFGNYVPNSWTQDNGCTLCEFDTVDLSAVDVHPNVSIGVFIEQPTPFLPRFLDILLTLDYPKEALKLFIHNKEVYHEKDIKVFFDKAKHEIKTIKIVGPEENLSQAEARNMGMDFCRQDEKCDYYFSVDADVVLTNPRTLKILIEQNRKIIAPLVTRHGKLWSNFWGALSPDGYYARSEDYVDIVQGNRVGVWNVPYMANVYLIKGKTLRSEMNERNYFVRDKLDPDMALCRNAREMGVFMYISNRHEFGRLLSTANYNTSHYNNDLWQIFENPVDWKEKYINRDYSKIFTENIVEQPCPDVFWFPIFSEKACDELVEEMEHYGKWSGGKHHDSRISGGYENVPTDDIHMKQVDLENVWLHFIREFIAPVTLKVFAGYYTKGFALLNFVVKYSPERQRSLRPHHDASTFTINIALNNVGEDFQGGGCKFLRYNCSIESPRKGWSFMHPGRLTHLHEGLPVKNGTRYIAVSFIDP
modifications: full-length
B3: O43865 (protein, UniProt O43865 1-530, looked up)
chain: MSMPDAMPLPGVGEELKQAKEIEDAEKYSFMATVTKAPKKQIQFADDMQEFTKFPTKTGRRSLSRSISQSSTDSYSSAASYTDSSDDEVSPREKQQTNSKGSSNFCVKNIKQAEFGRREIEIAEQDMSALISLRKRAQGEKPLAGAKIVGCTHITAQTAVLIETLCALGAQCRWSACNIYSTQNEVAAALAEAGVAVFAWKGESEDDFWWCIDRCVNMDGWQANMILDDGGDLTHWVYKKYPNVFKKIRGIVEESVTGVHRLYQLSKAGKLCVPAMNVNDSVTKQKFDNLYCCRESILDGLKRTTDVMFGGKQVVVCGYGEVGKGCCAALKALGAIVYITEIDPICALQACMDGFRVVKLNEVIRQVDVVITCTGNKNVVTREHLDRMKNSCIVCNMGHSNTEIDVTSLRTPELTWERVRSQVDHVIWPDGKRVVLLAEGRLLNLSCSTVPTFVLSITATTQALALIELYNAPEGRYKQDVYLLPKKMDEYVASLHLPSFDAHLTELTDDQAKYLGLNKNGPFKPNYYRY
modifications: full-length
B4: Q96MG2 (protein, UniProt Q96MG2 1-331, looked up)
chain: MSMTTRAWEELDGGLGSCQALEDHSALAETQEDRASATPRLADSGSVPHDSQVAEGPSVDTRPKKMEKEPAARGTPGTGKERLKAGASPRSVPARKKAQTAPPLQPPPPPPALSEELPWGDLSLNKCLVLASLVALLGSAFQLCRDAVPGEAALQARVPEPWVPPSSAPREPSSPLPKFEAQAPPSAPPAPRAEAEVRPKIPGSREAAENDEEEPGEATGEAVREDRVTLADRGPKERPRREGKPRKEKPRKEERPKKERPRKEERPRAAREPREALPQRWESREGGHRPWARDSRDAEPRKKQAWVSPRRPDEEQRPGSRQKLRAGKGRD
modifications: full-length
B5: P25705 (protein, UniProt P25705 1-553, looked up)
chain: MLSVRVAAAVVRALPRRAGLVSRNALGSSFIAARNFHASNTHLQKTGTAEMSSILEERILGADTSVDLEETGRVLSIGDGIARVHGLRNVQAEEMVEFSSGLKGMSLNLEPDNVGVVVFGNDKLIKEGDIVKRTGAIVDVPVGEELLGRVVDALGNAIDGKGPIGSKTRRRVGLKAPGIIPRISVREPMQTGIKAVDSLVPIGRGQRELIIGDRQTGKTSIAIDTIINQKRFNDGSDEKKKLYCIYVAIGQKRSTVAQLVKRLTDADAMKYTIVVSATASDAAPLQYLAPYSGCSMGEYFRDNGKHALIIYDDLSKQAVAYRQMSLLLRRPPGREAYPGDVFYLHSRLLERAAKMNDAFGGGSLTALPVIETQAGDVSAYIPTNVISITDGQIFLETELFYKGIRPAINVGLSVSRVGSAAQTRAMKQVAGTMKLELAQYREVAAFAQFGSDLDAATQQLLSRGVRLTELLKQGQYSPMAIEEQVAVIYAGVRGYLDKLEPSKITKFENAFLSHVVSQHQALLGTIRADGKISEQSDAKLKEIVTNFLAGFEA
modifications: full-length
B6: A0A087WW87 (protein, UniProt A0A087WW87 1-121, looked up)
chain: MRLPAQLLGLLMLWVPGSSEDIVMTQTPLSLPVTPGEPASISCRSSQSLLDSDDGNTYLDWYLQKPGQSPQLLIYTLSYRASGVPDRFSGSGSGTDFTLKISRVEAEDVGVYYCMQRIEFP
modifications: full-length
B7: P05141 (protein, UniProt P05141 1-298, looked up)
chain: MTDAAVSFAKDFLAGGVAAAISKTAVAPIERVKLLLQVQHASKQITADKQYKGIIDCVVRIPKEQGVLSFWRGNLANVIRYFPTQALNFAFKDKYKQIFLGGVDKRTQFWLYFAGNLASGGAAGATSLCFVYPLDFARTRLAADVGKAGAEREFRGLGDCLVKIYKSDGIKGLYQGFNVSVQGIIIYRAAYFGIYDTAKGMLPDPKNTHIVISWMIAQTVTAVAGLTSYPFDTVRRRMMMQSGRKGTDIMYTGTLDCWRKIARDEGGKAFFKGAWSNVLRGMGGAFVLVLYDEIKKYT
modifications: full-length
B8: Q00325 (protein, UniProt Q00325 1-362, looked up)
chain: MFSSVAHLARANPFNTPHLQLVHDGLGDLRSSSPGPTGQPRRPRNLAAAAVEEQYSCDYGSGRFFILCGLGGIISCGTTHTALVPLDLVKCRMQVDPQKYKGIFNGFSVTLKEDGVRGLAKGWAPTFLGYSMQGLCKFGFYEVFKVLYSNMLGEENTYLWRTSLYLAASASAEFFADIALAPMEAAKVRIQTQPGYANTLRDAAPKMYKEEGLKAFYKGVAPLWMRQIPYTMMKFACFERTVEALYKFVVPKPRSECSKPEQLVVTFVAGYIAGVFCAIVSHPADSVVSVLNKEKGSSASLVLKRLGFKGVWKGLFARIIMIGTLTALQWFIYDSVKVYFRLPRPPPPEMPESLKKKLGLTQ
modifications: full-length
B9: O43175 (protein, UniProt O43175 1-533, looked up)
chain: MAFANLRKVLISDSLDPCCRKILQDGGLQVVEKQNLSKEELIAELQDCEGLIVRSATKVTADVINAAEKLQVVGRAGTGVDNVDLEAATRKGILVMNTPNGNSLSAAELTCGMIMCLARQIPQATASMKDGKWERKKFMGTELNGKTLGILGLGRIGREVATRMQSFGMKTIGYDPIISPEVSASFGVQQLPLEEIWPLCDFITVHTPLLPSTTGLLNDNTFAQCKKGVRVVNCARGGIVDEGALLRALQSGQCAGAALDVFTEEPPRDRALVDHENVISCPHLGASTKEAQSRCGEEIAVQFVDMVKGKSLTGVVNAQALTSAFSPHTKPWIGLAEALGTLMRAWAGSPKGTIQVITQGTSLKNAGNCLSPAVIVGLLKEASKQADVNLVNAKLLVKEAGLNVTTSHSPAAPGEQGFGECLLAVALAGAPYQAVGLVQGTTPVLQGLNGAVFRPEVPLRRDLPLLLFRTQTSDPAMLPTMIGLLAEAGVRLLSYQTSLVSDGETWHVMGISSLLPSLEAWKQHVTEAFQFHF
modifications: full-length
B10: P06702 (protein, UniProt P06702 1-114, looked up)
chain: MTCKMSQLERNIETIINTFHQYSVKLGHPDTLNQGEFKELVRKDLQNFLKKENKNEKVIEHIMEDLDTNADKQLSFEEFIMLMARLTWASHEKMHEGDEGPGHHHKPGLGEGTP
modifications: full-length

System: proteins that co-immunoprecipitated with DUX4-CTD constructs expressed in MB135 myoblasts
Assay: LC-MS of proteins co-immunoprecipitated with DUX4-CTD (Table 1) and western validation
Assay type: binding, human
Set-up: key to 4. mL1dL2 + Dox + IFNG / 4. + IFNG mix / 4. longCTD + Dox + IFNG / 3. + IFNg + Dox longCTD / 3. + Dox longCTD / 3. + IFNG longCTD: peptide-spectrum matches (PSMs) per protein
Conditions: for 4. longCTD + Dox + IFNG: LC-MS counts of the listed protein co-immunoprecipitated with DUX4-CTD bait longCTD, experiment 4, Dox + IFNG; for 3. + IFNg + Dox longCTD / 3. + Dox longCTD: bait longCTD; for 3. + IFNg + Dox longCTD: experiment 3, IFNg + Dox; for SUM of PSMS: sum over all samples; for 3. + Dox longCTD: experiment 3, Dox only
In short: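 Two independent experiments compared uninduced, doxycycline and doxycycline+IFNG MB135iDUX4-CTD (plus MB135iDUX4mL1dL2) myoblasts. Anti-FLAG pulldowns (3 h, 4 °C) were eluted in LDS buffer for western validation or with FLAG peptide for trypsin digestion and Orbitrap LC-MS; hits needed ≥2 PSMs in both experiments, ranked by total PSMs.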

Row | Molecule | 4. longCTD + Dox + IFNG | 3. + IFNg + Dox longCTD | SUM of PSMS | 3. + Dox longCTD
1 | B1 | 11 | 1 | 29 | –
2 | B2 | 7 | 3 | 25 | –
3 | B3 | – | 11 | 19 | 7
4 | B4 | 3 | 10 | 18 | 4
5 | B5 | 4 | 2 | 17 | 1
6 | B6 | 5 | 2 | 15 | 2
7 | B7 | 6 | 3 | 9 | –
8 | B8 | 2 | 1 | 8 | –
9 | B9 | 1 | 3 | 6 | 1
10 | B10 | – | 1 | 4 | 1
